B1: YFP- and HA-epitope tagged dopamine transporter (YFP-HA-DAT), wild type [human] / itself (parent)
chain: MSKSKCSVGLMSSVVAPAKEPNAVGPKEVELILVKEQNGVQLTSSTLTNPRQSPVEAQDRETWGKKIDFLLSVIGFAVDLANVWRFPYLCYKNGGGAFLVPYLLFMVIAGMPLFYMELALGQFNREGAAGVWKICPILKGVGFTVILISLYVGFFYNVIIAWALHYLFSSFTTELPWIHCNNSWNSPNCSDAHPGDSSGDSSGLNDTFGTTPAAEYFERGVLHLHQSHGIDDLGPPRWQLTACLVLVIVLLYFSLWKGVKTSGKVVWITATMPYVVLTALLLRGVTLPGAIDGIRAYLSVDFYRLCEASVWIDAATQVCFSLGVGFGVLIAFSSYNKFTNNCYRDAIVTTSINSLTSFSSGFVVFSFLGYMAQKHSVPIGDVAKDGPGLIFIIYPEAIATLPLSSAWAVVFFIMLLTLGIDSAMGGMESVITGLIDEFQLLHRHRELFTLFIVLATFLLSLFCVTNGGIYVFTLLDHFAAGTSILFGVLIEAIGVAWFYGVGQFSDDIQQMTGQRPSLYWRLCWKLVSPCFLLFVVVVSIVTFRPPHYGAYIFPDWANALGWVIATSSMAMVPIYAAYKFCSLPGSFREKLAYAIAPEKDRELVDRGEVRQFTLRHWLKV

Variants of B1 are the subject of the first test. Kind of test: SDS-PAGE and immunoblotting with the GFP antibody, quantification of trimer band. The note with it: AIM-100 20 μM, 2 h at 37 °C, PAE cells, read off a plot.
Regarding chain 1 I248F V249T L458F L459G, the screen value (fraction of total) was 0.3.

The test is the same for the next values; noted with them: AL3 20 μM, 2 h at 37 °C, PAE cells, read off a plot.
With chain 1 I248F V249T L458F L459G, the screen value (fraction of total) was 0.15.

The same test, now with this note: AL4 20 μM, 2 h at 37 °C, PAE cells, read off a plot.
With chain 1 I248F V249T L458F L459G, the screen value (fraction of total) was 0.17.

Staying with this test, now noted: AL8 20 μM, 2 h at 37 °C, PAE cells, read off a plot.
For chain 1 I248F V249T L458F L459G, the screen value (fraction of total) was 0.22.

Still in this test, the particulars now being: vehicle, 2 h at 37 °C, PAE cells, read off a plot.
As to chain 1 I248F V249T L458F L459G, the screen value (fraction of total) was determined as 0.17.

Source of the values: article PMC8010718, “Direct coupling of oligomerization and oligomerization-driven endocytosis of the dopamine transporter to its conformational mechanics and activity” (The Journal of Biological Chemistry, 2021).
